B1: BicD2-CTD (C-terminal cargo-binding domain of human Bicaudal D2, residues 715-804) [human] / full-length GTP-bound Rab6a/Q72L with N-terminal GST tag [human] (parent complex)
chain 1: YENEKAMVTETMMKLRNELKALKEDAATFSSLRAMFATRCDEYITQLDEMQRQLAAAEDEKKTLNSLLRMAIQQKLALTQRLELLELDHE
chain 2: MSTGGDFGNPLRKFKLVFLGEQSVGKTSLITRFMYDSFDNTYQATIGIDFLSKTMYLEDRTVRLQLWDTAGLERFRSLIPSYIRDSTVAVVVYDITNVNSFQQTTKWIDDVRTERGSDVIIMLVGNKTDLADKRQVSIEEGERKAKELNVMFIETSAKAGYNVKQLFRRVAAALPGMESTQDRSREDMIDIKLEKPQEQPVSEGGCSC

Variants of B1 are the subject of this test. The test can be described thus: GST pull-down, SDS-PAGE band quantification; parent: 1; read off a plot.
As to chain 2 D49A, the ratio to parent is roughly 0.04.

As for chain 2 I46A, the ratio to parent was roughly 0.07.

Regarding chain 2 K53A, the ratio to parent is roughly 0.01.

On to chain 2 F75A, for which the ratio to parent is roughly 0.02.

With chain 2 Y82A, the ratio to parent was roughly 0.16.

In the case of chain 2 I83A, the ratio to parent was roughly 0.02.

In the case of chain 2 I48A, the ratio to parent is roughly 1.3.

In the case of chain 2 R84A, the ratio to parent was roughly 1.

chain 2 R63A: the ratio to parent is roughly 0.07.

Take chain 2 L51A: the ratio to parent is roughly 1.1.

For the variant chain 2 R74A, the ratio to parent is roughly 0.95.

Consider chain 2 L78A, for which the ratio to parent is roughly 0.57.

In the case of chain 2 Y35A, the ratio to parent was roughly 0.4.

Take chain 2 F50A: the ratio to parent is roughly 0.37.

chain 2 I79A: the ratio to parent is roughly 0.1.

Regarding chain 2 Y42A, the ratio to parent was roughly 0.38.

As to chain 2 S81A, the ratio to parent was roughly 1.

For the variant chain 2 S52A, the ratio to parent was roughly 1.

Consider chain 2 S77A, for which the ratio to parent is roughly 0.86.

With chain 2 D85A, the ratio to parent is roughly 0.99.

On to chain 2 Q43A, for which the ratio to parent was roughly 1.

In the case of chain 2 T54A, the ratio to parent was roughly 0.79.

chain 2 P80A: the ratio to parent is roughly 0.75.

Take chain 2 Q65A: the ratio to parent is roughly 0.48.
